Laboratory results from patent US7482004B2, “Inhibitors of placental growth factor for the treatment of pathological angiogenesis, pathological arteriogenesis, inflammation, tumor formation and/or vascular leakage” (Vlaams Interuniversitair Instituut voor Biotechnologie vzw, priority 2000, dated 2009).
Marks after values point to notes of the source that are not given here.

B1: PLGF: murine Placental Growth Factor (R&D) (protein, UniProt P49764 19-158, looked up)
Placenta growth factor: VHSQGALSAGNNSTEVEVVPFNEVWGRSYCRPMEKLVYILDEYPDEVSHIFSPSCVLLSRCSGCCGDEGLHCVPIKTANITMQILKIPPNRDPHFYVEMTFSQDVLCECRPILETTKAERRKTKGKRKRSRNSQTEEPHP

Assays:
[1] = test system: PIGF^+/+ and PIGF^−/− endothelial cells; test: Endothelial cell migration (chemotaxis); type: cell-based, mouse; settings: for chemotaxis of endothelial cells: 100 ng/ml (VEGF165, PIGF), both genotypes
Method: (§1) The reduced response of PIGF^−/− endothelial cells to VEGF was confirmed using cultured primary PIGF^−/− endothelial cells. […] Thus, PIGF determines and synergistically amplifies the response to VEGF.
(§2) Endothelial and smooth muscle cell culture: In order to obtain mouse capillary endothelial cells, anesthetized mice were injected s.c. with 500 μl of ice-cold matrigel containing bFGF (100 ng/ml) and heparin (100 μg/ml). After seven days, the matrigel pellet was dissected and enzymatically dispersed using 0.1% type II collagenase (Sigma, St. Louis, Mo.). Mouse endothelial cells were routinely cultured in T75 flasks coated with 0.1% gelatin in M131 medium supplemented with 5% MVGS (Gibco-BRL). Smooth muscle cells from mouse aorta were harvested and cultured as described (J. M. Herbert et al., 1997, FEBS Lett. 413, 401-404). Before stimulation, cells were starved in medium with 0.5% serum for 24 hours, after which they were stimulated with human VEGF165 and/or murine PIGF, or bFGF (all from R&D, Abingdon, UK) for 24 hours before analysis of the total cell number (proliferation) or the number of cells migrated after scrape-wounding (migration).

[2] = test system: PIGF^+/+ and PIGF^−/− smooth muscle cells; test: Smooth muscle cell migration; type: cell-based, mouse
Method: as §1, §2

[3] = test system: PIGF^+/+ and PIGF^−/− smooth muscle cells; test: Smooth muscle cell proliferation; type: cell-based, mouse
Excerpt: (§3) Proliferation and survival of endothelial cells in response to VEGF were studied. […] PIGF was also found to modulate the mitogenic response to VEGF of smooth muscle cells, known to express VEGFR-1 and VEGFR-2 (C. L. Grosskreutz et al., 1999, Microvasc. Res. 58, 128-136). […] Thus, PIGF affected endothelial and smooth muscle cells only when they were stimulated with VEGF.
as §2

[4] = test system: PLGF^−/− endothelial cells; test: Endothelial proliferation, PLGF-/- cells; type: cell-based, mouse
Excerpt: as §3
(§4) The data represent the mean±SD of nine to twelve experiments. *: p<0.05 versus control (vehicle). None of the antibodies affected baseline endothelial proliferation in the absence of VEGF (not shown). Ab: polyclonal antiserum; MoAb: monoclonal antibodies; bFGF: basic fibroblast growth factor.
as §2, with “Before stimulation, cells were starved in medium with 0.5% serum for 24 hours, after which they were stimulated with human VEGF165 and/or murine PIGF, or bFGF (all from R&D, Abingdon, UK) for 24 hours before analysis of the total cell number (proliferation) or the number of cells migrated after scrape-wounding (migration).” left out

[5] = test system: PLGF^+/+ endothelial cells; test: Endothelial proliferation, PLGF+/+ cells; type: cell-based, mouse
Excerpt: as §3, §4
as §2, with “Before stimulation, cells were starved in medium with 0.5% serum for 24 hours, after which they were stimulated with human VEGF165 and/or murine PIGF, or bFGF (all from R&D, Abingdon, UK) for 24 hours before analysis of the total cell number (proliferation) or the number of cells migrated after scrape-wounding (migration).” left out

PIGF^−/− mice = test: Matrigel assay, PIGF-/- mice; type: in vivo, mouse; settings: subcutaneous matrigel with 100 ng/ml factor, seven days, n=15
Excerpt: (§5) Since VEGF plays a role in the above-mentioned phenotypes of angiogenesis, arteriogenesis and permeability, we investigated whether PIGF determined the responsiveness to VEGF. Subcutaneous implantation of matrigel (A. Passaniti et al., 1992, Lab. Invest. 67, 519-528) supplemented with VEGF165 (VEGF165) induced a strong angiogenic response in PIGF^+/+ but not in PIGF^−/− mice (hemoglobin content: 0.28±0.02 g/dl in PIGF^+/+ mice versus 0.02±0.02 g/dl in PIGF^−/− mice; n=15; p<0.05).
(§6) In contrast, basic fibroblast growth factor (bFGF) induced a similar angiogenic response in both genotypes (hemoglobin content: 0.28±0.02 g/dl in PIGF^+/+ mice versus 0.25±0.02 g/dl in PIGF^−/− mice; n=15; p=NS). These observations were confirmed by histological analysis and immunostaining for endothelial factor VIII-related antigen.
(§7) Matrigel assay: Ingrowth of capillaries in matrigel was performed as described (A. Passaniti et al., 1992, Lab. Invest. 67, 519-528). […] After seven days, the matrigel pellet with the neovessels was dissected for analysis of neovascularization: one part was homogenized to determine the hemoglobin content determined using Drabkin's reagent (Sigma, St. Quentin Fallavier, France), whereas the other part was fixed in 1% paraformaldehyde for histological analysis.

PIGF^+/+ mice = test: Matrigel assay, PIGF+/+ mice; type: in vivo, mouse; settings: subcutaneous matrigel with 100 ng/ml factor, seven days, n=15
Excerpt: as §5, §6, §7

[6] = test system: PIGF^+/+ and PIGF^−/− endothelial cells; test: Endothelial cell survival (apoptosis by serum deprivation or TNF-α); type: cell-based, mouse
Excerpt: as §3, §2

PIGF^−/− fibroblasts = test: VEGF production by PIGF-/- fibroblasts; type: cell-based; settings: 100 ng/ml for 48 hours
Method: (§8) Expression of VEGF by PIGF^−/− fibroblasts was increased by PIGF (VEGF production per 10^6 cells/ml/24 hours: 180±10 pg after treatment with vehicle versus 440±10 pg after treatment with 100 ng/ml PIGF for 48 hours; p<0.05 versus vehicle). Similar results were obtained for PIGF^+/+ fibroblasts (VEGF production per 10^6 cells/ml/24 hours: 200±8 pg after treatment with vehicle versus 430±5 pg after treatment with 100 ng/ml PIGF for 48 hours; p<0.05 versus vehicle).

PIGF^+/+ fibroblasts = test: VEGF production by PIGF+/+ fibroblasts; type: cell-based; settings: 100 ng/ml for 48 hours
Method: as §8

[7] = PIGF added to VEGF165, PIGF^−/− endothelial cells

Row | Molecule | chemotaxis of endothelial cells [1] | migration of smooth muscle cells [2] | smooth muscle cell proliferation [3] | Endothelial proliferation ([4]; 50 ng/ml) | Endothelial proliferation ([5]; 50 ng/ml) | hemoglobin content (angiogenic response in matrigel) (PIGF^−/− mice) | hemoglobin content (angiogenic response in matrigel) (PIGF^+/+ mice) | proliferation and survival response to VEGF165 [6, 7] | mitogenic and anti-apoptotic activity ([6]; factor alone, endothelial cells of either genotype) | migration of endothelial cells in response to VEGF165 [1, 7] | VEGF production per 10^6 cells/ml/24 hours (PIGF^−/− fibroblasts) | Endothelial proliferation ([4]; 100 ng/ml of each factor) | Endothelial proliferation ([5]; 100 ng/ml of each factor) | VEGF production per 10^6 cells/ml/24 hours (PIGF^+/+ fibroblasts)
1 | bFGF: basic fibroblast growth factor | both genotypes responded comparably | stimulated smooth muscle cells of both genotypes | comparable responses | 35 ± 5* | 35 ± 2* | 0.25 ± 0.02 g/dL | 0.28 ± 0.02 g/dL |  |  |  |  |  |  | 
2 | B1 | not chemotactic for endothelial cells of either genotype | rescued the impaired smooth muscle cell response to VEGF | ineffective by itself, restored the responsiveness of PIGF^−/− cells to VEGF |  |  |  |  | rescued the impaired proliferation and survival response | not mitogenic nor anti-apoptotic | completely restored the impaired migration | 440±10 pg | 11 ± 1 | 11 ± 1 | 430±5 pg
